According to patent publication US20240052042A1 (Novartis, published 2024):

Experiments:
[1] = biological target: T1, human NPR1 on CHO-K1 cells (human, UniProt P16066 33-1061); assay: cell-based or functional assay
T1 sequence: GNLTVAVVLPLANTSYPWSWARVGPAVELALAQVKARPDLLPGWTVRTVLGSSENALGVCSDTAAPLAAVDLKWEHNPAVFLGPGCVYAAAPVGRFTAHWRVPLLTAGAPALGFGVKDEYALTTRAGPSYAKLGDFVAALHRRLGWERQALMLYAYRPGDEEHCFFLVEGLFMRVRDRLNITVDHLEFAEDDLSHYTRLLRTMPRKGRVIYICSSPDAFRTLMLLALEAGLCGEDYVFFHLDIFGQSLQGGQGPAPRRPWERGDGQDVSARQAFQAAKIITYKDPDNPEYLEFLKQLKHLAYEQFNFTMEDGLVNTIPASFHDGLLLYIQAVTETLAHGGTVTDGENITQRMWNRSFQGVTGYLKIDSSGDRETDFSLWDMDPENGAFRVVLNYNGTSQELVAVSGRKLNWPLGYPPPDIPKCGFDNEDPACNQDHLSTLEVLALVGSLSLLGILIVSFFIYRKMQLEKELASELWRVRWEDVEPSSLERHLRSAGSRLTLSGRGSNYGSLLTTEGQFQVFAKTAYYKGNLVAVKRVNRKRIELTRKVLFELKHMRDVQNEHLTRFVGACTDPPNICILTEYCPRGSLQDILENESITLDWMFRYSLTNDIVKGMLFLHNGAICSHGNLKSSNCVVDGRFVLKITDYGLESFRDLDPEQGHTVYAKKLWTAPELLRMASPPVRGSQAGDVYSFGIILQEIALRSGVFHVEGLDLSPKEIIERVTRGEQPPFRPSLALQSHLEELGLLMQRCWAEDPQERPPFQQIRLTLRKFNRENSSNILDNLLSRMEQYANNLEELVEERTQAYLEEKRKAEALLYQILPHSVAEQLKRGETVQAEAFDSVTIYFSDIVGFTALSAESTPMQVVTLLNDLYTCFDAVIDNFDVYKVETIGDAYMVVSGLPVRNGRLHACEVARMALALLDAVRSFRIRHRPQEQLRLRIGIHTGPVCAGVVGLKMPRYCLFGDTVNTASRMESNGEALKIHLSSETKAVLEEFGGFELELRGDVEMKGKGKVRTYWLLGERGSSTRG

rNPR1-ANP complex [2] = biological target: T2, rNPR1-ANP complex (rat, UniProt P01160 124-151 (human entry), limits assumed); assay: FabCys affinity (Octet per Table 18 comment)
T2 construct: rNPR1 antigen in the presence of ANP; also called rNPR1 + 100 nM ANP
T2 sequence: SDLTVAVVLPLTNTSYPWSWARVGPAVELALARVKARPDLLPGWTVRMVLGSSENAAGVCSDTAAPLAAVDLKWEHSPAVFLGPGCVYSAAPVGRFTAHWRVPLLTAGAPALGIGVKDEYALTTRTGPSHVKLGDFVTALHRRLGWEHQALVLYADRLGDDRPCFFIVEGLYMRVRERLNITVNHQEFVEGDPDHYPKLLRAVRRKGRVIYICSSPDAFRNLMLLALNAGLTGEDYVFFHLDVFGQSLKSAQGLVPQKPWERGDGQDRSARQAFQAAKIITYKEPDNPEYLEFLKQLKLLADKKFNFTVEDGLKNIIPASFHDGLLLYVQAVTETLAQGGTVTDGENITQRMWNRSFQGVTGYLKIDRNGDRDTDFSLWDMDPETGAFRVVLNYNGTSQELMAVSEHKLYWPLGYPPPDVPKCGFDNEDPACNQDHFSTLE
T2 sequence (peptide): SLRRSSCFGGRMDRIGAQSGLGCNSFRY

[3] = biological target: T3, human Natriuretic Peptide Receptor 1 (hNPR1) (human, UniProt P16066 33-473, limits assumed); assay: FabCys affinity (Octet per Table 18 comment)
T3 construct: pannings used NPR1-hFc; also called NPR1-hFc
T3 sequence: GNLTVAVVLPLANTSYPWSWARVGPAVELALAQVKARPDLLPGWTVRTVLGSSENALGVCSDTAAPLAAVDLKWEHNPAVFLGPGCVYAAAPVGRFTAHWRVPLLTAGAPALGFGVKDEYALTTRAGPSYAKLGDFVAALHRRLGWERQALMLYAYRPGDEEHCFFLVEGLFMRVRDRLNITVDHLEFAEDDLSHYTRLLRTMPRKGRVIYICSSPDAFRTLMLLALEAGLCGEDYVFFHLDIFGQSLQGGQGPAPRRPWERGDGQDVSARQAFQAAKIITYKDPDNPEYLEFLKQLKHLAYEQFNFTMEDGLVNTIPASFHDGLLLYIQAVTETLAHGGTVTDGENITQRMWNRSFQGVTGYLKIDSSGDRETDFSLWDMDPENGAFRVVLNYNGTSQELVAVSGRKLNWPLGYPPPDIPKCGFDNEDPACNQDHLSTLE

hNPR1-ANP complex [4] = biological target: T4, hNPR1-ANP complex (human, UniProt P01160 124-151, limits assumed); assay: FabCys affinity (Octet per Table 18 comment)
T4 construct: hNPR1 antigen in the presence of ANP; also called hNPR1 + 100 nM ANP
T4 sequence: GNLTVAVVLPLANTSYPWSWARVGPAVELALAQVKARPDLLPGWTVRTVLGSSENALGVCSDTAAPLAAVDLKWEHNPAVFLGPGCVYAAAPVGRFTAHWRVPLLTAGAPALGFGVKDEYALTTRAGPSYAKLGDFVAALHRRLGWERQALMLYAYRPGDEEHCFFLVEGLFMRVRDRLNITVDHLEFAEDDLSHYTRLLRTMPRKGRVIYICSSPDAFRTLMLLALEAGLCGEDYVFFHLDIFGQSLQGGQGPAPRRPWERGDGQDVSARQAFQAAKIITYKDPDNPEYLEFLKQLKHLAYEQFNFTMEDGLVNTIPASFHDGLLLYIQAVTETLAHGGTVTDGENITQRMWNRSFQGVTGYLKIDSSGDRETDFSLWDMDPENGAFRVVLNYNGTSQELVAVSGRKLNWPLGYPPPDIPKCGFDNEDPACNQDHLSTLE
T4 sequence (peptide): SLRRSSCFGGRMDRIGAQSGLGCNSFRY

rat NPR1 (rNPR1) [5] = biological target: T5, rat NPR1 (rNPR1) (rat, UniProt P18910 29-469, limits assumed); assay: FabCys affinity (Octet per Table 18 comment)
T5 construct: Soluble antigen
T5 sequence: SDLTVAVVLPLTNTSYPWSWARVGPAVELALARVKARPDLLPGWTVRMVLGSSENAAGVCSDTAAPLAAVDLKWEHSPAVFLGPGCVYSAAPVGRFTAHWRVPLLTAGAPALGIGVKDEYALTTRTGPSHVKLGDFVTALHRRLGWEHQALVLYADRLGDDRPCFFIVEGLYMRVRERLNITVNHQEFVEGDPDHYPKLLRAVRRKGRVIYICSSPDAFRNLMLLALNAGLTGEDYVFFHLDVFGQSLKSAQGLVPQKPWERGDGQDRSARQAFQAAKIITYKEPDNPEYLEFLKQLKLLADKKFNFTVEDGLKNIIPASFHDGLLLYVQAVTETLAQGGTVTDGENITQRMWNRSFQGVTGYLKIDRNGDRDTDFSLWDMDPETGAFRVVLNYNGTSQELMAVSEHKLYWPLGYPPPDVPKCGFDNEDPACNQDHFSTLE

rNPR1-ANP complex [6] = biological target: T2, rNPR1-ANP complex; assay: Octet, FabCys
[7] = biological target: T3, human Natriuretic Peptide Receptor 1 …; assay: Octet, FabCys
hNPR1-ANP complex [8] = biological target: T4, hNPR1-ANP complex; assay: Octet, FabCys
rat NPR1 (rNPR1) [9] = biological target: T5, rat NPR1 (rNPR1); assay: Octet, FabCys
rNPR1-ANP complex [10] = biological target: T2, rNPR1-ANP complex; assay: FabCys, parental value by Octet (table comment), as in Table 14
[11] = biological target: T3, human Natriuretic Peptide Receptor 1 …; assay: as above
hNPR1-ANP complex [12] = biological target: T4, hNPR1-ANP complex; assay: as above
rat NPR1 (rNPR1) [13] = biological target: T5, rat NPR1 (rNPR1); assay: as above
[14] = biological target: T3, human Natriuretic Peptide Receptor 1 …; assay: FabCys, parental value as in Table 14 (no method comment)
hNPR1-ANP complex [15] = biological target: T4, hNPR1-ANP complex; assay: as above
[16] = biological target: T3, human Natriuretic Peptide Receptor 1 …; assay: FabCys affinity determination
hNPR1-ANP complex [17] = biological target: T4, hNPR1-ANP complex; assay: FabCys affinity determination

B1: YY06 (FabCys format) (Fab, V domains shown)
VH: EVQLLESGGGLVQPGGSLRLSCAASGFTFSSYAISWVRQAPGKGLEWVSAISGSGGSTYYAESVKGRFTISRDNSKNTLYLQMNSLRAEDTAVYYCARPYLGDRRSYGFDHWGQGTLVTVSS
VL: QSALTQPASVSGSPGQSITISCTGTSSDVGSYNLVSWYQQHPGKAPKLMIYEGSKRPSGVSNRFSGSKSGNTASLTISGLQAEDEADYYCSSYGFHIVVVVFGGGTKLTVL
notes: Monovalent FabCys
**Q.** For B1, which “cGMP conc [nM] at 1 µM FabCys, +0.075 nM ANP” value [1] is on record?
**A.** 75 nM

**Q.** And the “cGMP conc [nM] at 1 µM FabCys, without ANP” value [1]?
**A.** 20 nM

**Q.** And the Kd (rNPR1-ANP complex [2])?
**A.** 1400 nM

**Q.** And the Kd [3]?
**A.** 0.5 nM

**Q.** What about the Kd (hNPR1-ANP complex [4]) of the same binder?
**A.** 1 nM

**Q.** And the Kd (rat NPR1 (rNPR1) [5])?
**A.** 1600 nM

**Q.** And the Kd (rNPR1-ANP complex [6])?
**A.** 38 nM

**Q.** And the Kd [7]?
**A.** 0.62 nM

**Q.** What about the Kd (hNPR1-ANP complex [8]) of the same binder?
**A.** 0.8 nM

**Q.** What about the Kd (rat NPR1 (rNPR1) [9]) of the same binder?
**A.** 100 nM

**Q.** And the Kd (rNPR1-ANP complex [10])?
**A.** 1400 nM

**Q.** And the Kd [11]?
**A.** 0.5 nM

**Q.** What about the Kd (hNPR1-ANP complex [12]) of the same binder?
**A.** 1 nM

**Q.** And the Kd (rat NPR1 (rNPR1) [13])?
**A.** 1600 nM

B2: YY07 (FabCys format) (Fab, V domains shown)
VH: EVQLVQSGAEVKKPGESLKISCKGSGYSFTSYWISWVRQMPGKGLEWMGIIYPGTSYTRYSPSFQGQVTISADKSISTAYLQWSSLKASDTAMYYCARGSLPGLLGFDHWGQGTLVTVSS
VL: QSVLTQPPSVSGAPGQRVTISCTGSSSNIGAGYDVHWYQQLPGTAPKLLIYGNSNRPNGVPDRFSGSKSGTSASLAITGLQAEDEADYYCQSYDSPTSSSVFGGGTKLTVL
notes: Monovalent FabCys
**Q.** What does the source list for B2?
**A.** cGMP conc [nM] at 1 µM FabCys, +0.075 nM ANP [1]: 88 nM; cGMP conc [nM] at 1 µM FabCys, without ANP [1]: 77 nM; Kd [14]: 1.8 nM; Kd (hNPR1-ANP complex [15]): 590 nM; Kd [16]: 1.8 nM; Kd (hNPR1-ANP complex [17]): 590 nM
